Measured values published in patent US20200339702A1 (ULTRAHUMAN THIRTEEN, published 2020).
Positions count from the first letter of the chain named. In names and notes the source's numbering stands. Each block holds one binder with its values, some of them ahead of it.

Assays:
human insulin = target: T1, human insulin (human, UniProt P01308 25-54; P01308 90-110, limits assumed); experiment: development risk ELISA on insulin
T1 construct: Off-target protein in the development risk (polyreactivity) ELISA

[1] = target: T2, rhesus ERBB3 on transiently transfected HEK-293 cells (rhesus monkey (Macaca mulatta), UniProt P21860 20-1342 (human entry)); experiment: flow cytometry, rhesus ERBB3-transfected HEK-293 cells, IgG1 titrated
T2 construct: also called rhesus ERBB3+ HEK-293 cells
T2 chain: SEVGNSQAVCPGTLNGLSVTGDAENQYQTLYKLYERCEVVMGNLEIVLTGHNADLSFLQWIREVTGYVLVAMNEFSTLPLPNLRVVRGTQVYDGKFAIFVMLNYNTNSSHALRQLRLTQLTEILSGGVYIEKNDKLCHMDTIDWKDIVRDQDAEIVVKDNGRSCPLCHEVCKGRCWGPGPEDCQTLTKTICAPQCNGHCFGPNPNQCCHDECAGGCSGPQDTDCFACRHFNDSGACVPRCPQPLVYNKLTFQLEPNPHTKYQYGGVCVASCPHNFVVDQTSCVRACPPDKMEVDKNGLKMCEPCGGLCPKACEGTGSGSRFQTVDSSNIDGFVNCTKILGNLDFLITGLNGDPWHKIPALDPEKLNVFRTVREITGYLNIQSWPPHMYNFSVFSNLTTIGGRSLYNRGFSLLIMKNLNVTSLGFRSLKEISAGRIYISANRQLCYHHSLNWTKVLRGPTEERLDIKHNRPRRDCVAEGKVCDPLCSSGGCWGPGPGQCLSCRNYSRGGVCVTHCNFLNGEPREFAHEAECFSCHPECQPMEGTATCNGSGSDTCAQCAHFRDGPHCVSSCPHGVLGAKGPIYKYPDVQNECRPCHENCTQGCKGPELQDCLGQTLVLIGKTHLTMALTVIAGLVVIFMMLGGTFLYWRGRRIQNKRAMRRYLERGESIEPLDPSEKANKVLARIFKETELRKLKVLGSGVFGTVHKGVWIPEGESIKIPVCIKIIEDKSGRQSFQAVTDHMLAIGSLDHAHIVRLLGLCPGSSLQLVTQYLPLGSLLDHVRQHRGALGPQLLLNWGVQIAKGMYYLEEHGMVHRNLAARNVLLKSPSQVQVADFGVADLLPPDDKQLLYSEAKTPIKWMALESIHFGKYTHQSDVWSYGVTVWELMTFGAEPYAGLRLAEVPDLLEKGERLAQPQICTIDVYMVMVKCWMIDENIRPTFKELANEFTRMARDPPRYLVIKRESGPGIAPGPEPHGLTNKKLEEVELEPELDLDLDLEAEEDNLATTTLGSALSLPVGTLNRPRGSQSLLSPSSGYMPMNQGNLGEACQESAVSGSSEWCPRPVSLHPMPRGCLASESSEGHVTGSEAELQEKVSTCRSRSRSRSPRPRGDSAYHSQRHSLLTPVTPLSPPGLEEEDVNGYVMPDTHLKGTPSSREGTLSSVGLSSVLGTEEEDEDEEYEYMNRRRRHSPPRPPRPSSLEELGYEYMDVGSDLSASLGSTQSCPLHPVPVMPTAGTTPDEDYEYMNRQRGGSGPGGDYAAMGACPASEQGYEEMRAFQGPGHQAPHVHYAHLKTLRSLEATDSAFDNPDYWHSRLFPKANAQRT
Protocol: (§1) Purified IgGs were tested in FACs for binding to human and rhesus monkey ERBB3 expressed on transiently transfected HEK-293 cells and HEK-293 wild-type cells. The IgG samples were titrated in three-fold serial dilutions starting at 500 nM to 0.008 nM. Binding of IgGs was detected with a mouse anti-human IgG conjugated to FITC. Results were analyzed by examining the Mean Fluorescence Intensity (MFI) of 10000 cells per sample in the BL-1 channel detector of a flow cytometer (Attune™ NxT Acoustic Focusing Cytometer, Invitrogen/ThermoFisher Scientific).

[2] = target: T3, human ERBB3 His tagged, monomeric (human, UniProt P21860 20-643, biotinylated in the Alphascreen assays (sites not given)); experiment: Alphascreen competition in solution, competitor h24C05 IgG1, biotinylated human ERBB3-His
T3 construct: Used unbiotinylated as Biacore analyte and biotinylated in Alphascreen; treated as one molecule; also called human ERBB3-His (Acrobiosystems); biotinylated monomeric human ERBB3

[3] = target: T4, rhesus monkey ERBB3 human Fc tagged recombinant protein (rhesus monkey (Macaca mulatta), UniProt P21860 20-643 (human entry), limits assumed); experiment: direct binding ELISA on coated rhesus ERBB3-Fc, IgG1 titrated
T4 construct: also called rhesus ERBB3-Fc; rhERBB3
T4 chain: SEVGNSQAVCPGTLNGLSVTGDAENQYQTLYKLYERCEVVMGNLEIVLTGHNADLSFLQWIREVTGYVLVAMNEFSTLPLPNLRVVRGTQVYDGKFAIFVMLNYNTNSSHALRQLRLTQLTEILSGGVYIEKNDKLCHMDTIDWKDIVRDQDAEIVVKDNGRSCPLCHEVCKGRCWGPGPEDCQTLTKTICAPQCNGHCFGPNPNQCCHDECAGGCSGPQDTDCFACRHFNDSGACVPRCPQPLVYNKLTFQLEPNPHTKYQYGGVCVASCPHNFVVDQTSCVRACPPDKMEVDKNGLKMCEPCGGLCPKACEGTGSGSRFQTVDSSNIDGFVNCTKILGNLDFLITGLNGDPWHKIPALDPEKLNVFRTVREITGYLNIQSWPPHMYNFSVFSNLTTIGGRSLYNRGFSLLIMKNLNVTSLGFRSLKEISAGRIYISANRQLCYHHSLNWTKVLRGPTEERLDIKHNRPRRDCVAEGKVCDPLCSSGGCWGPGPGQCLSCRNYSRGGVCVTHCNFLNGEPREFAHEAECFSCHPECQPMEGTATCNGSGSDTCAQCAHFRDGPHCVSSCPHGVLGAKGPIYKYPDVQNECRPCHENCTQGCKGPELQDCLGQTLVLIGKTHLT
Protocol: (§2) Binding and cross-reactivity of the lead panel to the recombinant proteins was initially assessed by binding ELISA. The human ERBB3 human Fc tagged recombinant protein and the rhesus monkey ERBB3 human Fc tagged recombinant protein were coated to the surface of MaxiSorp™ flat-bottom 96 well plate at 1 μg/ml. The purified IgG samples were titrated in two fold serial dilutions starting from 500 nM to 0.008 nM and allowed to bind to the coated antigens. The Fabs were detected using mouse anti-c-myc antibody followed by donkey anti-mouse IgG conjugated to horseradish peroxidase. The IgGs were detected using the mouse anti-human IgG conjugated to horseradish peroxidase. Binding signals were visualized with 3,3′,5,5′-Tetramethylbenzidine Substrate Solution (TMB) and the absorbance measured at 450 nm.

[4] = target: T5, human ERBB3 human Fc tagged recombinant protein (human, UniProt P21860 20-643); experiment: direct binding ELISA on coated human ERBB3-Fc, IgG1 titrated
T5 construct: also called human ERBB3-Fc; huERBB3
Protocol: as §2

[5] = target: T6, human ERBB3 on transiently transfected HEK-293 cells (human, UniProt P21860 20-1342); experiment: flow cytometry, human ERBB3-transfected HEK-293 cells, IgG1 titrated
T6 construct: also called human ERBB3+ HEK-293 cells
Protocol: as §1

[6] = target: T6, human ERBB3 on transiently transfected …; experiment: flow cytometry, human ERBB3-transfected HEK-293
Protocol: as §1
(§3) Antibodies to ERBB3 were analysed for concentration-dependent binding at the cell surface via flow cytometry. HEK-293 cells were transiently transfected with either human or rhesus ERBB3 full-length cDNAs. Anti-ERBB3 IgGs and an isotype control were then all tested in IgG1null format, over a concentration range of 500-0.008 nM for binding to human (FIG. 5A) and rhesus (FIG. 5B) transfected cells.

[7] = target: T2, rhesus ERBB3 on transiently transfected …; experiment: flow cytometry, rhesus ERBB3-transfected HEK-293
Protocol: as §1, §3

[8] = target: T7, rhesus monkey ERBB3 His tag, monomeric (rhesus monkey (Macaca mulatta), UniProt P21860 20-643 (human entry), limits assumed); experiment: SPR (Biacore), captured IgG, monomeric ERBB3-His analyte
T7 chain: T4 chain
Protocol: (§4) Affinity (KD) of purified IgGs was determined via SPR with antigen in-solution on a Biacore® 3000 (GE). A mouse anti-human antibody (CH1 specific) was immobilized on a CM5 Sensor Chip to a level of 2000 RU in acetate buffer at pH 4.5 using amine coupling following the Wizard instructions for two channels. One channel was used for background signal correction. The standard running buffer HBS-EP pH 7.4 was used. Regeneration was performed with a single injection of 10 μl of 10 mM Glycine at pH 1.5 at […]. IgG samples were injected for 2 minutes at 50 nM at 30 μl/min followed by an off-rate of 60 seconds. The monomeric antigen (human ERBB3 His tagged or rhesus monkey ERBB3 His tag) was injected in two fold serial dilutions from 3 nM down to 0.2 nM, for 2 minutes at 30 μl/min followed by an off-rate of 300 seconds. The obtained sensorgrams were analysed using the Biacore® 3000 evaluation (BlAevaluation) software. The KD was calculated by simultaneous fitting of the association and dissociation phases to a 1:1 Langmuir binding model.
(§5) Biacore® analyses of binding affinity were performed for all IgGs to solution-phase, monomeric human and rhesus ERBB3 proteins.

[9] = target: T3, human ERBB3 His tagged, monomeric; experiment: as above
Protocol: as §4, §5

[10] = target: T7, rhesus monkey ERBB3 His tag, monomeric; experiment: SPR (Biacore)
Protocol: as §4

[11] = target: T3, human ERBB3 His tagged, monomeric; experiment: SPR (Biacore)
Protocol: as §4

[12] = target: T3, human ERBB3 His tagged, monomeric; experiment: Alphascreen competition in solution, competitor h24C05 IgG1null, biotinylated human ERBB3-His
Protocol: The AlphaScreen assay (Perkin Elmer) was performed in a 25 μl final volume in 384-well white microtiter plates (Greiner). The reaction buffer contained 1×PBS pH 7.3 (Oxoid, Cat. nr. BR0014G) and 0.05% (v/v) Tween® 20 (Sigma, Cat. nr. P9416). Purified IgG samples were titrated in three fold serial dilutions starting at 100 nM final concentration and incubated with biotinylated human ERBB3-His (Acrobiosystems) at 1 nM final concentration for 20 minutes at room temperature. The parental IgG and the anti-human IgG1 Acceptor beads at were added and the mix was incubated for 1 hour at room temperature. Followed by addition of the Streptavidin Donor beads and incubation for 30 minutes at room temperature. The emission of light was measured in the EnVision multilabel plate reader (Perkin Elmer) and analysed using the EnVision manager software. Values were reported as Counts Per Second (CPS) and corrected for crosstalk.

T1 sequence (P01308 25-54 limits assumed, chain 1 of 2): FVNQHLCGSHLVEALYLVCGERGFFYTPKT
T1 sequence (P01308 90-110 limits assumed, chain 2 of 2): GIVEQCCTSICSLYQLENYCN

B1: 15G11-DI9 IgG1 (antibody, V domains shown)
VH: QVQLVESGGGLVKPGGSLRLSCAASGFTFSDYSMSWIRQAPGKGLEWVSTISDSGTYTYYPDSVKGRFTISRDNAKNSLYLQMNSLRAEDTAVYYCAREWGDYDGFDFWGQGTLVTVSS
VL: DIQMTQSPSSLSASVGDRVTITCRASQEISTYLSWYQQKPGKAPKLLIYAASTLQSGVPSRFSGSGSGTDFTLTISSLQPEDFATYYCLQYDSSPLTFGGGTKVEIK
notes: Human IgG1 format, human Ckappa
binding score (human insulin): < 10
binding result [1]: binds
binding result [2]: binds
binding result [3]: binds
binding result [4]: binds
binding result [5]: binds

B2: 15G11-DI7 IgG1 (antibody, V domains shown)
VH: B1 VH
VL: B1 VL with T31S, T53S, Q55D, S56T, L96Y
notes: Human IgG1 format, human Ckappa; also called 15G11-D17
binding score (human insulin): < 10
binding result [1]: binds
binding result [2]: binds
binding result [3]: binds
binding result [4]: binds
binding result [5]: binds

Next, values leading:

maximum MFI, fold over isotype control background [6]: > 20 fold
maximum MFI, fold over isotype control background [7]: > 20 fold
Kd [8]: 0.63 nM
koff [8]: 0.011 s⁻¹
kon [8]: 1.8e+07 M⁻¹ s⁻¹
Kd [9]: 0.85 nM
koff [9]: 0.0065 s⁻¹
kon [9]: 7.6e+06 M⁻¹ s⁻¹
fold reduction in binding affinity against clone MH2 [10]: ~3 fold
fold reduction in binding affinity against clone MH2 [11]: ~3 fold
B3: MH3 IgG1null (antibody, V domains shown)
VH: B1 VH with T56S, Y57T, T58I, P61A
VL: B1 VL with E28S, T31S, T53S, S94T
notes: Designer (Maximally Humanized) clone; Human IgG1null and human Ckappa

maximum MFI, fold over isotype control background [6]: > 20 fold
maximum MFI, fold over isotype control background [7]: > 20 fold
Kd [8]: 0.18 nM
koff [8]: 0.00074 s⁻¹
kon [8]: 4.1e+06 M⁻¹ s⁻¹
Kd [9]: 0.039 nM
koff [9]: 0.00096 s⁻¹
kon [9]: 2.5e+07 M⁻¹ s⁻¹
IC50 (read off the curve) [12]: ~5 nM
B4: h24C05 IgG1null (antibody, V domains shown)
VH: B1 VH with S33A, S54G, S63N, F108Y
VL: B1 VL with T31G, Y36F, L46S, Q55D, S94Y, L96Y
notes: Human IgG1null (L234A, L235A, G237A) and human Ckappa; also called humanized 24C05
